# According to article PMC8575775, “Structural basis of the interaction between SETD2 methyltransferase and hnRNP L paralogs for governing co-transcriptional splicing” (Nature Communications, 2021):
# Where a chain is given by its changes, count along the chain named. Several values for one entry are separate records, joined by “and”; a condition that tells them apart may be missing. Equal entries are not always repeated. Ends that are not written are not given here.
# B1: SETD2 2180–2192 peptide (peptide)
# peptide: SNPNAGKVLLPTP
# notes: also called truncated peptide; source: synthetic peptide
# B2: SETD2 2167–2192 peptide (peptide, UniProt Q9BYW2 2167-2192, looked up)
# peptide: YPPGYPMQAYVDPSNPNAGKVLLPTP
# notes: source: synthetic peptide
# B3: SETD2^2167-2192 peptide (peptide, UniProt Q9BYW2 2167-2192, looked up)
# peptide: YPPGYPMQAYVDPSNPNAGKVLLPTP
# notes: source: synthetic peptide
# B4: SETD2^2180-2192 peptide (peptide)
# peptide: SNPNAGKVLLPTP
# notes: source: synthetic peptide
# Assays:
# PTB RRM2 (PTB1) = biological target: T1, PTB RRM2 (PTB1) (Homo sapiens, UniProt P26599); assay: ITC with PTB RRM2; format: binding; conditions: ITC 20 °C; N.D. = No detectable interaction under the experiment conditions
# T1 construct: made in house; host or cells: Escherichia coli BL21 (DE3)
# T1 sequence (P26599 184-260 limits assumed): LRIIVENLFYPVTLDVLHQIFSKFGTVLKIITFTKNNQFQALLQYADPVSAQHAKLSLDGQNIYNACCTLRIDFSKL
# hnRNP L Y257A = biological target: T2, hnRNP L Y257A (Homo sapiens, UniProt P14866, Y257A); assay: ITC with hnRNP L RRM2 Y257A mutant; format: binding; conditions: ITC 20 °C; N.D. = No detectable interaction under the experiment conditions
# T2 construct: made in house; host or cells: Escherichia coli BL21 (DE3)
# T2 sequence (P14866 189-286 Y257A): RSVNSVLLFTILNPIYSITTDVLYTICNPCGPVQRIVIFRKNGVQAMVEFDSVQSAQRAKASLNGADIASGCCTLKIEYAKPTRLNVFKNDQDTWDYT
# Method: (§1) The hnRNP L_RRM2 fragment (residues189-286) was amplified from the human brain cDNA library and cloned into a modified pET28a (Novagen) vector without a thrombin protease cleavage site (termed p28a). All the mutants were generated using a MutantBEST kit (Takara) and verified via DNA sequencing. All the proteins were expressed in Escherichia coli BL21 (DE3) cells. The cells were cultured at 37 °C in LB medium, until the OD600 reached about 0.8. Then the proteins were induced with 0.2 mM isopropyl β-D-1-thiogalactopyranoside (IPTG). After induction at 16 °C for 24 h, the cells were harvested and lysed by sonication in buffer A (20 mM Tris-HCl, pH 7.8, 1 M NaCl). Proteins were first purified by Ni-NTA agarose beads and further purified by size-exclusion chromatography on a Hiload 16/60 Superdex 75 column (GE Healthcare) in buffer A. Purified proteins were dialyzed with Buffer B (20 mM Tris-HCl pH 7.8, 150 mM NaCl) and concentrated for subsequent analysis.
# (§2) Isothermal titration calorimetry (ITC) assays were performed at 20 °C by using a Microcal PEAQ-ITC instrument (Malvern). We conducted the ITC experiments using SETD2 peptides for titration into hnRNP L and hnRNP LL proteins. […] The integrated heat data were analyzed using a one-site binding model by MicroCal PEAQ 1.0.0.1259-ITC Analysis Software provided by the manufacturer.
# hnRNP L RRM2 = biological target: T3, hnRNP L RRM2 (Homo sapiens, UniProt P14866); assay: ITC of SETD2 peptides with hnRNP L RRM2; format: binding; conditions: ITC 20 °C, N.D. = No detectable interaction under the experiment conditions
# T3 construct: made in house; host or cells: Escherichia coli BL21 (DE3)
# T3 sequence (P14866 189-286): T2 sequence (P14866 189-286 Y257A) with A69Y
# Method: as §1, §2
# [1] = biological target: T4, hnRNP L RRM2 (residues 189-286) (human, UniProt P14866 189-286); assay: ITC; SETD2 peptides (about 600 µM, syringe) titrated into hnRNP L / hnRNP LL proteins (about 50 µM, cell); 20 °C; Microcal PEAQ-ITC; one-site binding model; mean of three independent experiments; conditions: both partners purified
# T4 construct: hnRNP L, human, RRM2 fragment, residues 189-286, amplified from a human brain cDNA library; Cloned into a modified pET28a vector without a thrombin cleavage site (p28a); also called hnRNP L RRM2 WT; source: E. coli BL21 (DE3), purified (Ni-NTA, size-exclusion chromatography)
# T4 sequence (looked up): T2 sequence (P14866 189-286 Y257A) with A69Y
# hnRNP L RRM2 I256A = biological target: T5, hnRNP L RRM2 I256A (human, UniProt P14866 189-286, I256A); assay: as above; conditions: both partners purified
# T5 construct: hnRNP L, human, RRM2 fragment 189-286 with I256A; source: E. coli BL21 (DE3), purified (Ni-NTA, size-exclusion chromatography)
# T5 sequence (looked up): T2 sequence (P14866 189-286 Y257A) with I68A, A69Y
# hnRNP LL RRM2 [2] = biological target: T6, hnRNP LL RRM2 (human, UniProt Q8WVV9 166-268); assay: as above; conditions: both partners purified
# T6 construct: hnRNP LL, human, RRM2 domain; The methods describe only the cloning of hnRNP L RRM2; all proteins were expressed in E. coli; source: E. coli BL21 (DE3), purified (Ni-NTA, size-exclusion chromatography)
# T6 sequence: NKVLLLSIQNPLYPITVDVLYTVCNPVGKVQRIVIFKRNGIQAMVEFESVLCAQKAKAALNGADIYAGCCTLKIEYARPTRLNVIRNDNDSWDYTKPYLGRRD
# hnRNP L^I214A RRM2 = biological target: T7, hnRNP L^I214A RRM2 (human, UniProt P14866 189-286, I214A); assay: ITC; SETD2 peptide (about 600 µM, syringe) titrated into the protein (about 50 µM, sample pool); 20 °C; MicroCal PEAQ-ITC; one-site binding model; three independent titrations; conditions: both partners purified
# T7 construct: heterogeneous nuclear ribonucleoprotein L, human, RRM2 fragment residues 189-286 as Dm1, with I214A; source: E. coli BL21 (DE3), purified (Ni-NTA, size-exclusion chromatography)
# T7 sequence (looked up): T2 sequence (P14866 189-286 Y257A) with I26A, A69Y
# hnRNP L^L263A RRM2 [3] = biological target: T8, hnRNP L^L263A RRM2 (human, UniProt P14866 189-286, L263A); assay: as above; conditions: both partners purified
# T8 construct: heterogeneous nuclear ribonucleoprotein L, human, RRM2 fragment residues 189-286 as Dm1, with L263A; source: E. coli BL21 (DE3), purified (Ni-NTA, size-exclusion chromatography)
# T8 sequence (looked up): T2 sequence (P14866 189-286 Y257A) with A69Y, L75A
# hnRNP LL RRM2 [4] = biological target: T9, hnRNP LL RRM2 (human, UniProt Q8WVV9 166-268); assay: as above; conditions: both partners purified
# T9 construct: heterogeneous nuclear ribonucleoprotein L-like, human, RRM2 domain; also called hnRNP LL^WT; source: E. coli BL21 (DE3), purified (Ni-NTA, size-exclusion chromatography)
# T9 sequence: T6 sequence
# [5] = biological target: T10, hnRNP L RRM2 (residues 189-286) (human); assay: as above; conditions: both partners purified
# T10 construct: heterogeneous nuclear ribonucleoprotein L, human, RRM2 fragment residues 189-286; also called hnRNP L^WT; source: E. coli BL21 (DE3), purified (Ni-NTA, size-exclusion chromatography)
# T10 chain: T2 sequence (P14866 189-286 Y257A) with A69Y
# hnRNP LL^V188I RRM2 = biological target: T11, hnRNP LL^V188I RRM2 (human, UniProt Q8WVV9 166-268, V188I); assay: as above; conditions: both partners purified
# T11 construct: heterogeneous nuclear ribonucleoprotein L-like, human, RRM2 domain as Dm4, with V188I; source: E. coli BL21 (DE3), purified (Ni-NTA, size-exclusion chromatography)
# T11 sequence: T6 sequence with V23I
# hnRNP L^I256A RRM2 = biological target: T12, hnRNP L^I256A RRM2 (human, UniProt P14866 189-286, I256A); assay: as above; conditions: both partners purified
# T12 construct: heterogeneous nuclear ribonucleoprotein L, human, RRM2 fragment residues 189-286 as Dm1, with I256A; source: E. coli BL21 (DE3), purified (Ni-NTA, size-exclusion chromatography)
# T12 sequence (looked up): T2 sequence (P14866 189-286 Y257A) with I68A, A69Y
# hnRNP L^V210A RRM2 = biological target: T13, hnRNP L^V210A RRM2 (human, UniProt P14866 189-286, V210A); assay: as above; conditions: both partners purified
# T13 construct: heterogeneous nuclear ribonucleoprotein L, human, RRM2 fragment residues 189-286 as Dm1, with V210A; source: E. coli BL21 (DE3), purified (Ni-NTA, size-exclusion chromatography)
# T13 sequence (looked up): T2 sequence (P14866 189-286 Y257A) with V22A, A69Y
# hnRNP L^L263A RRM2 [6] = biological target: T8, hnRNP L^L263A RRM2; assay: as above; conditions: both partners purified; remark: listed apart in the source
molecule,measurement,setting,value
YPPGYPMQAYVDPSNPNAGKVLLPTP [SETD2^2167–2192],"KD / interaction detected by ITC, in words",PTB RRM2 (PTB1),no detectable affinity
same,"KD / interaction detected by ITC, in words",hnRNP L Y257A,completely abolished
"SETD2^2113–2140: adjacent SETD2 fragment, residues 2113–2140, used as non-binding control in ITC (RNKLSTEERRKLFEQEVAQREAQKQQQQ)","KD / interaction detected by ITC, in words",hnRNP L RRM2,could not detect any interaction
same,"KD / interaction detected by ITC, in words",hnRNP L RRM2; listed as SETD2^2113-2140,No Binding
B1,Kd,[1],11.6 µM
B2,Kd,[1],5.86 µM
same,stoichiometry N,[1],0.93
same,fold decrease in binding against wild-type hnRNP L RRM2,hnRNP L RRM2 I256A,9 fold
same,Kd,hnRNP LL RRM2 [2],8.27 µM
B3,Kd,hnRNP L^I214A RRM2,15.6 µM and 16.3 µM and 16.2 µM and 16 µM
same,stoichiometry N,hnRNP L^I214A RRM2,1.01 and 1.05 and 1.18
same,Kd,hnRNP L^L263A RRM2 [3],14.4 µM and 13.6 µM and 13.2 µM and 13.7 µM
same,stoichiometry N,hnRNP L^L263A RRM2 [3],0.85 and 0.98 and 0.93
same,Kd,hnRNP LL RRM2 [4],8.58 µM and 8.04 µM and 8.19 µM
same,stoichiometry N,hnRNP LL RRM2 [4],0.95 and 1.04
same,Kd,[5],5.83 µM and 5.91 µM
same,stoichiometry N,[5],0.93 and 0.92
same,Kd,hnRNP LL^V188I RRM2,6.16 µM and 6.44 µM and 6.3 µM
same,stoichiometry N,hnRNP LL^V188I RRM2,1.1 and 0.96 and 1.12
same,Kd,hnRNP L^I256A RRM2,34.8 µM and 35.8 µM and 35 µM and 35.2 µM
same,stoichiometry N,hnRNP L^I256A RRM2,1.3 and 1.31 and 1.18
same,Kd,hnRNP L^V210A RRM2,9.1 µM and 8.9 µM and 9.33 µM and 9.11 µM
same,stoichiometry N,hnRNP L^V210A RRM2,0.93 and 0.78 and 1.13
same,stoichiometry N,hnRNP L^L263A RRM2 [6],0.97
B4,Kd,hnRNP LL RRM2 [4],20.2 µM and 19.8 µM and 20.1 µM (2×)
same,stoichiometry N,hnRNP LL RRM2 [4],0.82 and 0.83 and 0.89
same,Kd,[5],11.4 µM and 11.8 µM and 11.5 µM
same,stoichiometry N,[5],1.01 and 1 and 0.96
